Source: patent publication US11732027B2, “Protease-activated receptor-2 modulators” (Oasis Pharmaceuticals, LLC, priority 2015, dated 2023)
Numbered stars: 1 amine (or outer) side, 2 acyl side, 3 side chain; on linkers, the order of the positions; unused ones are H or OH. Square brackets hold non-standard residues; d marks the D form. * marks the point of attachment. εLys = N[C@@H](CCCCN[*:1])C(=O)[*:2]; Palmitoyl = CCCCCCCCCCCCCCCC(=O)*; Cit = NC(=O)NCCC[C@H](N)C(=O)O; Ahx = NCCCCCC(=O)O; βAla = NCCC(=O)O

Assays:
PAR2 = target: T1, PAR2 (Homo sapiens, UniProt P55085); test: Calcium flux assay, antagonist activity against SLIGRL in SW620 cells endogenously expressing PAR2; assay type: cell-based; details: 1 min pretreatment, 8 μM SLIGRL agonist
T1 construct: SW620 human colon adenocarcinoma cells that endogenously express PAR2; endogenous in cells; host or cells: SW620 human colon adenocarcinoma cells
T1 sequence (P55085 26-397): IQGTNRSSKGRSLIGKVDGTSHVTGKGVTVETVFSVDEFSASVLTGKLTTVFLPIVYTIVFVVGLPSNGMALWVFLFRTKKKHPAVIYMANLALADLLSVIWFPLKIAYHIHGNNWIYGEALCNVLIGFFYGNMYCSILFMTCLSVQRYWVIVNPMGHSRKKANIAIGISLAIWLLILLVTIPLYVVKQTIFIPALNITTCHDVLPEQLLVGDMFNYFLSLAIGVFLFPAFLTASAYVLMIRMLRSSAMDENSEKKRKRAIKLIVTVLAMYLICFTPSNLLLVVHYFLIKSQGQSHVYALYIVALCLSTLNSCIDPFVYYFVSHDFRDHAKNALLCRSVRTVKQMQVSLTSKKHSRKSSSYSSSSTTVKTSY
Experimental: Table 2 provides the antagonist activity for the resulting palmitoylated peptides (SEQ ID NO: 1-11, 13-41, and 70) of Table 1. Table 2 also provides the antagonist activity for the resulting myristoylated peptide SEQ ID NO: 12 of Table 1. Antagonist activity of the peptides were measured using calcium flux assays with SW620 human colon adenocarcinoma cells that endogenously express PAR2. The calcium signal of […] SLIGRL (SEQ ID NO: 73) following 1 min pretreatment with 3 μM or 10 μM of palmitoylated peptides. Final concentration of DMSO vehicle was 0.2%. Antagonist activity of 3 μM and 10 μM peptides against 8 μM SLIGRL (SEQ ID NO: 73; a known PAR2 agonist) was measured by maximal calcium flux. Experiments were repeated at least 2-3 times each and gave similar results.

db/db mouse = test: Obese-diabetic (db/db) mouse model, daily SC treatment for 3 weeks; assay type: in vivo; details: db/db mice, 10 mg/kg SC daily, over 3 weeks
Experimental: FIGS. 1A to 1B. Male obese-diabetic (db/db) mice, 6-8 weeks of age were purchase from Charles River Labs. The db/db mouse is a […] animal which serves as a model for diabetes, obesity and dyslipidemia. Animals were randomized according to blood glucose and body weight on day −2 and were allowed to eat a normal chow diet ad libitum. Treatment was initiated from day 0 with mice receiving daily subcutaneous (SC) injections (5 mL/kg) at 7-10 AM. HbA1c was monitored on days 0, 7, 14 and 21. Mice (n=10) were treated daily with either 10 mg/kg N-palmitoylated-SEQ70 (PZ-235) or vehicle (“Veh”). […] HbA1c levels reflect long-term blood glucose levels. […]
FIG. 2. Diabetic mice from the experiment in FIGS. 1A and 1B had their morning blood glucose measured thrice weekly.
FIG. 3. Diabetic mice had their blood glucose profile monitored on days 1, 8 and 22. […]
FIGS. 5A to 5B. Diabetic mice had their plasma triglyceride levels measured at baseline and after 3 weeks of treatment with PZ-235 versus vehicle.
FIG. 6. Diabetic mice had their liver triglyceride levels measured after 3 weeks of treatment with PZ-235 versus vehicle. At termination of the 3 week experiment, livers were isolated from the diabetic mice, snap frozen and liver triglycerides measured.

Row | Max (% Inh), maximal calcium flux (PAR2; 3 uM peptide) | Max (% Inh), maximal calcium flux (PAR2; 10 uM peptide) | food intake versus vehicle group (db/db mouse) | weight gain versus vehicle group (db/db mouse) | Compound
1 | 33% | 85% | – | – | 1 (GHENSEKKRKQAIK) [compound 1]
2 | 23% | 78% | – | – | 2 (GDHNSEKKRKQAIK) [compound 2]
3 | 49% | 89% | – | – | 3 (DSEKKRKQAIKLI) [compound 3]
4 | 24% | 82% | – | – | 4 (RSSAIDENSEKKRKSAIK) [compound 4]
5 | 18% | 32% | – | – | 5 (AIDENSEKKFKSAIKL) [compound 5]
6 | 50% | 84% | – | – | 7 (Pal-AIHHDSE[dP]KRKSAIKL-NH2) [compound 7]
7 | 16% | 18% | – | – | 8 (Pal-AIHHDSE[dP]RKSAAKL-NH2) [compound 8]
8 | 75% | 95% | – | – | 9 (Pal-GLHHDSEPKRKSAIKL[dI]-NH2) [compound 9]
9 | 31% | 95% | – | – | 11 (Pal-PLHHDSEPKR[dK]SAIK[dL]-NH2) [compound 11]
10 | 8% | 26% | – | – | 14 (Pal-[εLys]LDENSEKKF[dK]SAIKL[dV]-NH2) [compound 14]
11 | 17% | 60% | – | – | 16 (Pal-GLHHDSEPKR[dK][βAla]IK[dV]-NH2) [compound 16]
12 | 10% | 66% | – | – | 17 (Palmitoyl-[Ahx]LHHDSEPKR[dK]SAIK[dV]-NH2) [compound 17]
13 | 17% | 86% | – | – | 20 (Pal-[εLys]AIDENSEKKFKSAIKL-NH2) [compound 20]
14 | 23% | 29% | – | – | 25 (AMDENSEKKYKSAIKL) [compound 25]
15 | 6% | 0% | – | – | 30 (GLDENSEPKRKSAIKLI) [compound 30]
16 | 38% | 65% | – | – | 31 (GDENHEKKRKQAIK) [compound 31]
17 | – | 93% | – | – | 32 (PGDENSEKPKRKQAIK) [compound 32]
18 | 23% | 93% | – | – | 33 (GPDENSEKKPRKQAIK) [compound 33]
19 | 23% | 93% | – | – | 34 (Palmitoyl-GDENSEKK[Cit]KQAIK-NH2) [compound 34]
20 | 23% | 65% | – | – | 35 (Pal-GDENSEKKRKSAIK[dA]-NH2) [compound 35]
21 | 65% | 65% | – | – | 36 (GDENSEKKRKQAIKL) [compound 36]
22 | 0% | 65% | – | – | 37 (GDENSEKKRKQAIKLI) [compound 37]
23 | 23% | 65% | – | – | 38 (GDENSEKKRKQAIK) [compound 38]
24 | 23% | 93% | – | – | 39 (GDENSEKRWLWAIK) [compound 39]
25 | 38% | 93% | – | – | 40 (GDENSEKKRKWAIK) [compound 40]
26 | 38% | 65% | – | – | 41 (MDENSEKKRKRAIK) [compound 41]
27 | – | – | did not vary significantly | did not vary significantly | CCCCCCCCCCCCCCCC(=O)N[C@@H](CCCNC(=N)N)C(=O)N[C@@H](CO)C(=O)N[C@@H](CO)C(=O)N[C@@H](C)C(=O)N[C@@H](CCSC)C(=O)N[C@@H](CC(=O)O)C(=O)N[C@@H](CCC(=O)O)C(=O)N[C@@H](CC(N)=O)C(=O)N[C@@H](CO)C(=O)N[C@@H](CCC(=O)O)C(=O)N[C@@H](CCCCN)C(=O)N[C@@H](CCCCN)C(=O)N[C@@H](CCCNC(=N)N)C(=O)N[C@@H](CCCCN)C(=O)N[C@@H](CO)C(=O)N[C@@H](C)C(=O)N[C@H](C(=O)N[C@@H](CCCCN)C(N)=O)[C@@H](C)CC [SEQ ID NO 70]
